Laboratory results from patent publication US20190233495A1 (Sanofi, published 2019).
Read-outs that look alike come from different tables or passages of the source. Each block holds one binder with its values, some of them ahead of it. Positions of bridges follow the written chain, without caps; N, C: chain ends. Non-standard residues stand in square brackets, D forms with d. Chains are numbered I, II in the order given. No end group written: not given here. Nle = CCCC[C@H](N)C(=O)O; Aib = CC(C)(N)C(=O)O

Columns and labels:
Test in all cases: cell-based or functional assay
RXFP1 receptor [1] = biological target: T1, RXFP1 receptor (UniProt Q9HBX9 1-757, limits assumed)
T1 sequence (looked up): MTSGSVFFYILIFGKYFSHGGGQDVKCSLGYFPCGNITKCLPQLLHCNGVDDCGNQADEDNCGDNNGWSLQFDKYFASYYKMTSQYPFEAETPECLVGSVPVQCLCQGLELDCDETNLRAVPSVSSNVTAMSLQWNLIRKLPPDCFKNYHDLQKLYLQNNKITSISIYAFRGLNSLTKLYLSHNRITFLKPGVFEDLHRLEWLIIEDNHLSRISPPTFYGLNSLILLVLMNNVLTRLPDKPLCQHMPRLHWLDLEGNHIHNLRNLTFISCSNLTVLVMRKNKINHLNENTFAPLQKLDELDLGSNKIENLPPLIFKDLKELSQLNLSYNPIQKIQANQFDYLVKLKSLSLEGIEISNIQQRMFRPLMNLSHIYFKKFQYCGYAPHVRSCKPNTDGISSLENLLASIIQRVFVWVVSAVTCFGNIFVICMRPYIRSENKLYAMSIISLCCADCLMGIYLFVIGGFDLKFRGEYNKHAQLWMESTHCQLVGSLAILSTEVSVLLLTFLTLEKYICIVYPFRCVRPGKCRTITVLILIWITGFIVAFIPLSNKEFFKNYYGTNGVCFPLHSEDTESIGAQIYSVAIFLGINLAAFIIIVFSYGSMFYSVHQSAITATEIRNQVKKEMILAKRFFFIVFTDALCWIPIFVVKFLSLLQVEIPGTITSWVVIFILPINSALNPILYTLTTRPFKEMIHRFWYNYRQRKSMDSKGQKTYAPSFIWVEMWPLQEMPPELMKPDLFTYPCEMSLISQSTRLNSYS

RXFP1 receptor [2] = biological target: T1, RXFP1 receptor; remark: listed apart in the source
RXFP1 receptor [3] = biological target: T1, RXFP1 receptor; remark: listed apart in the source

B2: Human Relaxin-2 (H2 Relaxin) (ligand)
chain 1: H-QLYSALANKCCHVGCTKRSLARFC-OH
chain 2: H-DSWMEEVIKLCGRELVRAQIAICGMSTWS
modifications: disulfide I:10-I:15, I:11-II:11, I:24-II:23
cAMP assay in OVCAR 5 cells EC50 (RXFP1 receptor [2]): 0.1 to 0.3 nM

Binder: H-VIKLSGRELVRAQIAISGMSTWSKRSL-NH2 [B7-33 C11.23S]
cAMP assay in OVCAR 5 cells EC50 (RXFP1 receptor [3]): 1640 nM
cAMP assay in OVCAR 5 cells Emax (RXFP1 receptor [3]): 90%

Binder: Ac-VIKLSGRELVRAQIAISGMSTWSKKKK-NH2 [KKKK(AcB7-29 C11.23S)]
cAMP assay in OVCAR 5 cells EC50 (RXFP1 receptor [3]): 206 nM
cAMP assay in OVCAR 5 cells Emax (RXFP1 receptor [3]): 84%

Binder: Ac-VIKLSGRELVRAQIAISGMSTWSKRSL-NH2 [AcB7-33 C11.23S]
cAMP assay in OVCAR 5 cells EC50 (RXFP1 receptor [3]): 929 nM
cAMP assay in OVCAR 5 cells Emax (RXFP1 receptor [3]): 70%

B6: SEQ ID NO: 45 (peptide)
peptide: Ac-LEGREKVRAQI[Aib][Aib]EGMSTWS[Aib]RK-NH2
SMILES: CC[C@H](C)[C@H](NC(=O)[C@H](CCC(N)=O)NC(=O)[C@H](C)NC(=O)[C@H](CCCNC(=N)N)NC(=O)[C@@H](NC(=O)[C@H](CCCCN)NC(=O)[C@H](CCC(=O)O)NC(=O)[C@H](CCCNC(=N)N)NC(=O)CNC(=O)[C@H](CCC(=O)O)NC(=O)[C@H](CC(C)C)NC(C)=O)C(C)C)C(=O)NC(C)(C)C(=O)NC(C)(C)C(=O)N[C@@H](CCC(=O)O)C(=O)NCC(=O)N[C@@H](CCSC)C(=O)N[C@@H](CO)C(=O)N[C@H](C(=O)N[C@@H](Cc1c[nH]c2ccccc12)C(=O)N[C@@H](CO)C(=O)NC(C)(C)C(=O)N[C@@H](CCCNC(=N)N)C(=O)N[C@@H](CCCCN)C(N)=O)[C@@H](C)O
cAMP assay in OVCAR 5 cells EC50 (RXFP1 receptor [1]): 126 nM
cAMP assay in OVCAR 5 cells Emax (RXFP1 receptor [1]): 98%

Other lines, results leading:

cAMP assay in OVCAR 5 cells EC50 (RXFP1 receptor [1]): 19.5 nM
cAMP assay in OVCAR 5 cells Emax (RXFP1 receptor [1]): 91%
B1: SEQ ID NO: 48 (peptide)
peptide: Ac-ELEGREKVRAAI[Aib][Aib]EG[Nle]STWS[Aib]RKK-NH2
SMILES: CCCC[C@H](NC(=O)CNC(=O)[C@H](CCC(=O)O)NC(=O)C(C)(C)NC(=O)C(C)(C)NC(=O)[C@@H](NC(=O)[C@H](C)NC(=O)[C@H](C)NC(=O)[C@H](CCCNC(=N)N)NC(=O)[C@@H](NC(=O)[C@H](CCCCN)NC(=O)[C@H](CCC(=O)O)NC(=O)[C@H](CCCNC(=N)N)NC(=O)CNC(=O)[C@H](CCC(=O)O)NC(=O)[C@H](CC(C)C)NC(=O)[C@H](CCC(=O)O)NC(C)=O)C(C)C)[C@@H](C)CC)C(=O)N[C@@H](CO)C(=O)N[C@H](C(=O)N[C@@H](Cc1c[nH]c2ccccc12)C(=O)N[C@@H](CO)C(=O)NC(C)(C)C(=O)N[C@@H](CCCNC(=N)N)C(=O)N[C@@H](CCCCN)C(=O)N[C@@H](CCCCN)C(N)=O)[C@@H](C)O

cAMP assay in OVCAR 5 cells EC50 (RXFP1 receptor [1]): 22.2 nM
cAMP assay in OVCAR 5 cells Emax (RXFP1 receptor [1]): 95%
B3: SEQ ID NO: 49 (peptide)
peptide: Ac-LEGREKVRRQI[Aib][Aib]EG[Nle]STWS[Aib]RKK-NH2
SMILES: CCCC[C@H](NC(=O)CNC(=O)[C@H](CCC(=O)O)NC(=O)C(C)(C)NC(=O)C(C)(C)NC(=O)[C@@H](NC(=O)[C@H](CCC(N)=O)NC(=O)[C@H](CCCNC(=N)N)NC(=O)[C@H](CCCNC(=N)N)NC(=O)[C@@H](NC(=O)[C@H](CCCCN)NC(=O)[C@H](CCC(=O)O)NC(=O)[C@H](CCCNC(=N)N)NC(=O)CNC(=O)[C@H](CCC(=O)O)NC(=O)[C@H](CC(C)C)NC(C)=O)C(C)C)[C@@H](C)CC)C(=O)N[C@@H](CO)C(=O)N[C@H](C(=O)N[C@@H](Cc1c[nH]c2ccccc12)C(=O)N[C@@H](CO)C(=O)NC(C)(C)C(=O)N[C@@H](CCCNC(=N)N)C(=O)N[C@@H](CCCCN)C(=O)N[C@@H](CCCCN)C(N)=O)[C@@H](C)O

cAMP assay in OVCAR 5 cells EC50 (RXFP1 receptor [1]): 26.7 nM
cAMP assay in OVCAR 5 cells Emax (RXFP1 receptor [1]): 82%
B4: SEQ ID NO: 46 (peptide)
peptide: Ac-LEGREKVRAQI[Aib][Aib]EGMSKWS[Aib]R-NH2
SMILES: CC[C@H](C)[C@H](NC(=O)[C@H](CCC(N)=O)NC(=O)[C@H](C)NC(=O)[C@H](CCCNC(=N)N)NC(=O)[C@@H](NC(=O)[C@H](CCCCN)NC(=O)[C@H](CCC(=O)O)NC(=O)[C@H](CCCNC(=N)N)NC(=O)CNC(=O)[C@H](CCC(=O)O)NC(=O)[C@H](CC(C)C)NC(C)=O)C(C)C)C(=O)NC(C)(C)C(=O)NC(C)(C)C(=O)N[C@@H](CCC(=O)O)C(=O)NCC(=O)N[C@@H](CCSC)C(=O)N[C@@H](CO)C(=O)N[C@@H](CCCCN)C(=O)N[C@@H](Cc1c[nH]c2ccccc12)C(=O)N[C@@H](CO)C(=O)NC(C)(C)C(=O)N[C@@H](CCCNC(=N)N)C(N)=O

cAMP assay in OVCAR 5 cells EC50 (RXFP1 receptor [1]): 117 nM
cAMP assay in OVCAR 5 cells Emax (RXFP1 receptor [1]): 94%
B5: SEQ ID NO: 47 (peptide)
peptide: Ac-LEGREKVRAK(Ac)I[Aib][Aib]EG[Nle]STWS[Aib]RK-NH2
SMILES: CCCC[C@H](NC(=O)CNC(=O)[C@H](CCC(=O)O)NC(=O)C(C)(C)NC(=O)C(C)(C)NC(=O)[C@@H](NC(=O)[C@H](CCCCNC(C)=O)NC(=O)[C@H](C)NC(=O)[C@H](CCCNC(=N)N)NC(=O)[C@@H](NC(=O)[C@H](CCCCN)NC(=O)[C@H](CCC(=O)O)NC(=O)[C@H](CCCNC(=N)N)NC(=O)CNC(=O)[C@H](CCC(=O)O)NC(=O)[C@H](CC(C)C)NC(C)=O)C(C)C)[C@@H](C)CC)C(=O)N[C@@H](CO)C(=O)N[C@H](C(=O)N[C@@H](Cc1c[nH]c2ccccc12)C(=O)N[C@@H](CO)C(=O)NC(C)(C)C(=O)N[C@@H](CCCNC(=N)N)C(=O)N[C@@H](CCCCN)C(N)=O)[C@@H](C)O
